Stoichiometry N data for 1 substance are collected here from publication PMC9159934.

The test has as its target BsaXI specificity subunit, WT: TRD1-CR1-TRD2-CR2 (Bacillus stearothermophilus 25B (Geobacillus sp. 25B)). Nature of the test: co-purification by chromatography + SDS-PAGE band densitometry; RM and S expressed separately as intein-CBD fusions, combined and purified together over chitin, DEAE, heparin, Source 15S, Source 15Q and gel filtration (Superdex 75); RM:S ratio estimated from molecular mass and band intensity on SDS-PAGE (Bio Rad gel imaging software).

Broadly, the stoichiometry N is the number of molecules, sites or subunits per partner or assembly. “BsaXI restriction-modification subunit (RM fusion) (enzyme)”: the stoichiometry N was 2 RM per S.
